By IC50 is commonly meant the midpoint of a concentration-inhibition curve.

Where two headings read alike, the source gives them in different places.

Experimental findings from patent publication US20220033460A1, “IDENTIFICATION AND USE OF T CELL EPITOPES IN DESIGNING DIAGNOSTIC AND THERAPEUTIC APPROACHES FOR COVID-19” (priority 2020, published 2022) are described below.

For test [1], the target named is SARS-CoV-2 peptide on HLA-A*02:01 (human). The experiment in a line: barcoded tetramer library on ex vivo CD8+ T cells, single-cell sequencing; T cell clone or line. To be noted: chains Valpha:Vbeta.
For test [2], the target named is DRB01*11:01. Particulars: chains peptide; modification not given.
Test [3] has as its target DRB01*04:04. To be noted: chains peptide; modification not given.
The target of test [4] is DRB01*15:01. Particulars: chains peptide; modification not given.
In test [5] the target is DRB01*07:01. To be noted: chains peptide; modification not given.
The target in test [6] is DRB1*15:01. To be noted: modification not given.
The target of test [7] is DRB01*15:01. To be noted: chains peptide; modification not given. The source holds these as a separate data set.
Test [8] addresses DRB01*04:04. Particulars: chains peptide; modification not given. This is another data set of the same source.
The target in test [9] is DRB01*11:01. Particulars: modification not given.
Test [10] addresses DRB01*04:04. Particulars: modification not given.
Test [11] concerns the target DRB01*07:01. To be noted: modification not given.
For a further test, the target named is T1, I-Ab (mouse), P14434.
T1 chain 1: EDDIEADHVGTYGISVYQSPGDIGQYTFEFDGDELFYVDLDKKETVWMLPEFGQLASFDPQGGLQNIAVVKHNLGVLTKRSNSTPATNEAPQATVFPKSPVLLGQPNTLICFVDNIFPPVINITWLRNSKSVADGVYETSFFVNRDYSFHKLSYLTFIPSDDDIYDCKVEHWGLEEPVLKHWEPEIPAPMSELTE
T1 chain 2: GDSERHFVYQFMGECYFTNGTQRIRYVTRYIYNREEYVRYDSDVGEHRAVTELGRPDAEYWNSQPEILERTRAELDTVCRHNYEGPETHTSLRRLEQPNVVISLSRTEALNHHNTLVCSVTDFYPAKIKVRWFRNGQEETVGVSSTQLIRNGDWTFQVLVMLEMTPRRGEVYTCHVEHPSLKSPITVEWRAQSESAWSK
The experiment in a line: biochemically tested I-Ab binding affinity (method not told).

In test [12] the target is DRB1*07:01. To be noted: modification not given.
In test [13] the target is M protein peptide on HLA-A*02:01 (human). Put plainly: barcoded tetramer library on ex vivo CD8+ T cells, single-cell sequencing; T cell clone or line. Particulars: chains Valpha:Vbeta.
Test [14] deals with DRB1*07:01. To be noted: modification not given. This is another data set of the same source.
Test [15] deals with DRB1*15:01. To be noted: modification not given. The source holds these as a separate data set.

B1: TCR_93 (protein)
chain 1: ILNVEQSPQSLHVQEGDSTNFTCSFPSSNFYALHWYRWETAKSPEALFVMTLNGDEKKKGRISATLNTKEGYSYLYIKGSQPEDSATYLCALDYGQNFVFGPGTRLSVLP
chain 2: DGGITQSPKYLFRKEGQNVTLSCEQNLNHDAMYWYRQDPGQGLRLIYYSQIVNDFQKGDIAEGYSVSREKKESFPLTVTSAQKNPTAFYLCASSIGSREAFFGQGTRLTVV
In the case of B1, the No. of Cells in test [1] worked out at 2 cells.
In the case of GAVILRGHLRIAGHHLGR [SEQ ID NO 312], the IC50 was 383 nM with DRB01*11:01 [2], 9.54 µM with DRB01*04:04 [3], 3.22 µM in the test with DRB01*15:01 [4] and 14.5 µM with DRB01*07:01 [5].
In the test with DRB1*15:01 [6], STPCNGVEGFNCYFP [… (position 477)] had an IC50 of 6.82 µM.
Turning to VILRGHLRIAGHHLGRCDIKDLP [SEQ ID NO 310], the IC50 stood at 5.43 µM with DRB01*15:01 [7] and 1910 nM in the test with DRB01*04:04 [8].
For PKYVKQNTLKLAT [Positive Control …], the IC50 with DRB01*11:01 [9] worked out at 257 nM; in the test with DRB01*04:04 [10] it was 5.31 µM; with DRB01*07:01 [11], 2320 nM.
In the test with I-Ab (mouse), P14434, AWENTTIDLTSEKPA (modifications not checked) […] registered an IC50 of 10 µM.
On to PQIITTDNTFVSGNC [… (position 1112)], for which, in the test with DRB1*07:01 [12], the IC50 was determined as 7.37 µM. That is a single-digit micromolar value.

B2: TCR_74 (protein)
chain 1: GQNIDQPTEMTATEGAIVQINCTYQTSGFNGLFWYQQHAGEAPTFLSYNVLDGLEEKGRFSSFLSRSKGYSYLLLKELQMKDSASYLCAVRDLGGQKLLFARGTMLKVDL
chain 2: DAGVTQSPTHLIKTRGQQVTLRCSPKSGHDTVSWYQQALGQGPQFIFQYYEEEERQRGNFPDRFSGHQFPNYSSELNVNALLLGDSALYLCASSLGQGSPAGANVLTFGAGSRLTVL
B2 gave a No. of Cells in test [13] of 2 cells.
Take AEIRASANLAATKMS [… (position 1016)]: the figures for the IC50 in the test with DRB1*07:01 [14] and in the test with DRB1*15:01 [15] were 395 nM and 578 nM, respectively.
